Data on one molecule can be found in publication PMC5724754 (Cell reports, 2015).

This assay addresses CSN3 (human (endogenous in HEK293, HEK293T …, UniProt Q9UNS2 1-423)). Kind of assay: co-IP.

Chain of CSN3 (human (Q9UNS2 whole entry): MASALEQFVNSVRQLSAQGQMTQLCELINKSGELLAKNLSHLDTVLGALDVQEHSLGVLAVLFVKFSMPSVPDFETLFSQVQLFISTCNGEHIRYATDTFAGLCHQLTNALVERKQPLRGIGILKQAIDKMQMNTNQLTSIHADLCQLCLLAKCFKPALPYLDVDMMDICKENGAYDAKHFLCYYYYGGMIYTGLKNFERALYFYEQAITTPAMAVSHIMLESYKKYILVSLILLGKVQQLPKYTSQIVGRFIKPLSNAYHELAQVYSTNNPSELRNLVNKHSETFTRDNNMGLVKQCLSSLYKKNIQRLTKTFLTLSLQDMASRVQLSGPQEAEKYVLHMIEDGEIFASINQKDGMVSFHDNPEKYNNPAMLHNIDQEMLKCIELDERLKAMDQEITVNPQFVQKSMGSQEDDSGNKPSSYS

B1: CSNAP (CSN Acidic Protein) (natural protein)
chain: MKPAVDEMFPEGAGPYVDLDEAGGSTGLLMDLAANEKAVHADFFNDFEDLFDDDDIQ
As for B1, the binding result is given as “binds”.
